In the supplement of paper PMC10724198:
± gives the standard deviation of the averaged measurements.

test system: Saccharomyces cerevisiae; assay: protein stability index of tFT-peptide fusion (C-terminal peptide) (PSI (0-1 scale)); higher = more stable (slower turnover); details: genetic background: wild type; temperature: 30 C
Method: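 Multiplexed protein stability (MPS) profiling in S. cerevisiae. Random 12-aa peptides (tFT-X12 library) are fused to the C-terminus of a sfGFP-mCherry tandem fluorescent timer, after mCherry and a GGGS linker. Cells are FACS-sorted into 8 mCherry/sfGFP bins and deep-sequenced. The protein stability index (PSI) is the read-weighted bin average, scaled from 0 (unstable) to 1 (stable). Only peptides with >10 reads are reported; cells were grown at 30 °C in SC-His with glucose.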
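Note: PSI is a weighted mean of sequencing reads over stability bins, variants kept only with over 10 reads, mCherry proximal and sfGFP distal, peptide attached via GGGS linker.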

First: INLRENETKQRN
Second: ARACPLCFVMMF
The protein stability index of the first is higher: 0.673 ± 0.038 for the first, 0.559 ± 0.013 for the second.

VCGLCGGFMGLA and KKVGHGLRERGQ are within error of each other in protein stability index: 0.69 ± 0.042 for the first, 0.628 ± 0.061 for the second.

Going from KGDPKLTKKKPL to SRGRILAVRNTT, the protein stability index rises from 0.613 ± 0.077 to 0.713 ± 0.021.

AHEAHPITPRGP and PLSPRSASTFSP are within error of each other in protein stability index: 0.695 ± 0.042 for the first, 0.67 ± 0.0013 for the second.

EKKRERRRERKE and KINQDKKKGKKK are within error of each other in protein stability index: 0.65 ± 0.091 for the first, 0.686 ± 0.079 for the second.

First: VSFRAMDRLTSR
Second: LSAVHYNRAVFA
The protein stability index of the first is higher: 0.6171 ± 0.0023 for the first, 0.5141 ± 0.0049 for the second.

KILRRIFRNGGA and VPPPLRPLPPPP are within error of each other in protein stability index: 0.615 ± 0.062 for the first, 0.629 ± 0.14 for the second.

PPPPPPNPLPLP and EVWMGIRSLSVV are within error of each other in protein stability index: 0.68 ± 0.032 for the first, 0.634 ± 0.096 for the second.

Going from SSLPRLGSSPRR to FFDSPHCRYACV, the protein stability index rises from 0.66 ± 0.019 to 0.744 ± 0.009.

Going from VFYLNLLNQTRV to PSPPDTDTPIPL, the protein stability index rises from 0.629 ± 0.016 to 0.691 ± 0.034.

Compared with VSWFVGFCLWFP, PPPAPPLSPPPH is higher in protein stability index: 0.5506 ± 0.0025 for the first, 0.653 ± 0.038 for the second.

VIDLIYSMKVRR and KELQKKRIKKKN are within error of each other in protein stability index: 0.688 ± 0.034 for the first, 0.733 ± 0.078 for the second.

EVVGILSSVNIA and NRFFFRHGCVVF are within error of each other in protein stability index: 0.647 ± 0.03 for the first, 0.691 ± 0.031 for the second.

LPPPPTAPPPSR and PTRRVHRTPLFP are within error of each other in protein stability index: 0.719 ± 0.058 for the first, 0.778 ± 0.13 for the second.

SLPRPPVPLLPS and PRLSTYPDSPGS are within error of each other in protein stability index: 0.707 ± 0.017 for the first, 0.71038 ± 0.00066 for the second.

PPPAPPPHRDLS and KRKKNKEENQTE are within error of each other in protein stability index: 0.709 ± 0.057 for the first, 0.708 ± 0.016 for the second.

PPPRHVPLPPLT and EESKQKKKNEEE are within error of each other in protein stability index: 0.71 ± 0.11 for the first, 0.676 ± 0.041 for the second.

First: VCAASAGGARAG
Second: FVVGGGALGCYA
The protein stability index of the first is lower: 0.6213 ± 0.0025 for the first, 0.661 ± 0.019 for the second.

First: KLIVPCSPIRLS
Second: CLYVTFFLPCIL
The protein stability index of the first is higher: 0.6929 ± 0.0043 for the first, 0.491 ± 0.016 for the second.

CLSCLFFRVFAD and LLTSRLSTPFLI are within error of each other in protein stability index: 0.573 ± 0.08 for the first, 0.53 ± 0.012 for the second.

First: DGHSMFNRLIRS
Second: KKITSIHKKRER
The protein stability index of the first is lower: 0.64232 ± 0.00017 for the first, 0.822 ± 0.12 for the second.

VGVRGGRFWAGA and APVGYNTVASAC are within error of each other in protein stability index: 0.682 ± 0.018 for the first, 0.685 ± 0.042 for the second.

VVCKVLVTGIFD and LLYALLLSLFRY are within error of each other in protein stability index: 0.604 ± 0.0062 for the first, 0.595 ± 0.02 for the second.

SNTSRIQGGWLK and LPRLTPARPRHH are within error of each other in protein stability index: 0.699 ± 0.18 for the first, 0.7 ± 0.1 for the second.

VGGAVGAVGGGG and VLAGLTWQIAEL are within error of each other in protein stability index: 0.651 ± 0.02 for the first, 0.668 ± 0.023 for the second.

PPSLLPSPPRLF and KKKKKKVKNTKE are within error of each other in protein stability index: 0.667 ± 0.057 for the first, 0.698 ± 0.047 for the second.

GKFTGPLGARSR and RKGVSLAILLGP are within error of each other in protein stability index: 0.658 ± 0.032 for the first, 0.67 ± 0.055 for the second.

First: VRWISVGNGGVR
Second: SPLPPPTPLPLV
The protein stability index of the first is lower: 0.725 ± 0.013 for the first, 0.8075 ± 0.0021 for the second.

TFALAPLPPLPS and DVTKLVLSIDSC are within error of each other in protein stability index: 0.68 ± 0.032 for the first, 0.751 ± 0.052 for the second.

First: CRWLAKRVKDSS
Second: FGDRGLGIIYFK
The protein stability index of the first is lower: 0.629 ± 0.04 for the first, 0.7277 ± 0.0023 for the second.

Going from PPGSPPSLHLPP to AEVRGTVGRLVG, the protein stability index falls from 0.734 ± 0.021 to 0.632 ± 0.011.

First: CFLFLTVSSREG
Second: TEREAKKKKSKI
The protein stability index of the first is lower: 0.534 ± 0.03 for the first, 0.704 ± 0.026 for the second.

First: TGWASWVSVCLI
Second: DERLEIKERLEF
The protein stability index of the first is lower: 0.5587 ± 0.00094 for the first, 0.739 ± 0.071 for the second.

GFPGLFCGPVRF and GREGKEKKKPRR are within error of each other in protein stability index: 0.742 ± 0.054 for the first, 0.696 ± 0.097 for the second.

LDRGPFADQAPH and GKMLSRPRKTEN are within error of each other in protein stability index: 0.678 ± 0.012 for the first, 0.711 ± 0.03 for the second.

Going from PASPPTSPRSVP to MALAVRVVGCGA, the protein stability index falls from 0.742 ± 0.022 to 0.594 ± 0.014.

KTNKDKKRTKTV and RVYYPSGVKCRL are within error of each other in protein stability index: 0.714 ± 0.2 for the first, 0.671 ± 0.033 for the second.

SWHTSRPPPPPF and GVVLVARVTGSS are within error of each other in protein stability index: 0.656 ± 0.013 for the first, 0.662 ± 0.075 for the second.

PPAPHPHLPSSY and CQWGGWGVGVGG are within error of each other in protein stability index: 0.685 ± 0.072 for the first, 0.761 ± 0.061 for the second.

First: PRPRRFPPPLLA
Second: PTPGGLIIVLGS
The protein stability index of the first is lower: 0.5103 ± 0.0049 for the first, 0.6322 ± 0.0041 for the second.

First: PPPSDPLPPSVR
Second: WIFRDHVLRRFP
The protein stability index of the first is higher: 0.7044 ± 0.0067 for the first, 0.661 ± 0.024 for the second.

GNGIRLIPPAYS and PSPTPLPSPRLP are within error of each other in protein stability index: 0.725 ± 0.028 for the first, 0.676 ± 0.098 for the second.

GLRCSRVSFFFW and FVFSGLSGDFRG are within error of each other in protein stability index: 0.64 ± 0.039 for the first, 0.649 ± 0.054 for the second.

KIKKKKKNKTNR and LPPLAPPPPPLP are within error of each other in protein stability index: 0.676 ± 0.014 for the first, 0.688 ± 0.026 for the second.

YVKSIRRRDYIW and VSVGWWVGFWGV are within error of each other in protein stability index: 0.694 ± 0.0046 for the first, 0.6968 ± 0.0051 for the second.

First: AGLDRFLVIWGI
Second: GWVVGGGRLGVV
The protein stability index of the first is lower: 0.6106 ± 0.0061 for the first, 0.723 ± 0.095 for the second.

SPPPMPLPLIPL and LCLCGLLGSGPT are within error of each other in protein stability index: 0.663 ± 0.066 for the first, 0.736 ± 0.042 for the second.

WVGYAWDGKFDL and INPKSGIVVKFR are within error of each other in protein stability index: 0.736 ± 0.11 for the first, 0.679 ± 0.04 for the second.

First: RVYKTAYNRRTQ
Second: PSPPAPPRGLLP
The protein stability index of the first is higher: 0.832 ± 0.021 for the first, 0.704 ± 0.03 for the second.

PLPPVPRTPTPR and KHGLSDRAPLPK are within error of each other in protein stability index: 0.662 ± 0.075 for the first, 0.698 ± 0.05 for the second.

CPDSFARSAVLS and SSLGNSFYLSPH are within error of each other in protein stability index: 0.673 ± 0.074 for the first, 0.683 ± 0.033 for the second.

First: GGWGPGALEVGT
Second: PPASPRSPIVSR
The protein stability index of the first is lower: 0.6578 ± 0.0018 for the first, 0.723 ± 0.059 for the second.

Going from WSGREGRGEWGW to TMRSVSLRSVAS, the protein stability index falls from 0.791 ± 0.024 to 0.675 ± 0.022.

Compared with RFPLSLRIPLPK, FMFFMGLFVGGW is lower in protein stability index: 0.63 ± 0.034 for the first, 0.5401 ± 0.0026 for the second.

KKKKNKKKNKKK and TLPDSSSTSPNL are within error of each other in protein stability index: 0.669 ± 0.011 for the first, 0.696 ± 0.063 for the second.

NPVFPPPPHSQL and GKYEALGRFSPG are within error of each other in protein stability index: 0.75 ± 0.18 for the first, 0.71 ± 0.015 for the second.

VVVGVGGCVYMG and SLSFTFPLAPLL are within error of each other in protein stability index: 0.702 ± 0.06 for the first, 0.643 ± 0.12 for the second.

PPTPPPLRPSFS and IEWGPITTLTQT are within error of each other in protein stability index: 0.704 ± 0.023 for the first, 0.718 ± 0.02 for the second.

RSVWVGGVTNLG and PVGWRGGYVGGR are within error of each other in protein stability index: 0.657 ± 0.063 for the first, 0.666 ± 0.092 for the second.

TIAETIGCEKII and GGRCGEGLVREG are within error of each other in protein stability index: 0.785 ± 0.099 for the first, 0.702 ± 0.021 for the second.

First: PSTRPQYLFLPP
Second: SPSGLPLHFSFL
The protein stability index of the first is lower: 0.635 ± 0.016 for the first, 0.704 ± 0.012 for the second.

PCPPARSSLALS and KKQKPKVTSTKT are within error of each other in protein stability index: 0.636 ± 0.051 for the first, 0.712 ± 0.037 for the second.

IDSSLERVRQHS and GALVEGVFGHVR are within error of each other in protein stability index: 0.677 ± 0.058 for the first, 0.658 ± 0.0066 for the second.

GVLVGGERRWVL and RGVGEGFRAGCG are within error of each other in protein stability index: 0.699 ± 0.053 for the first, 0.672 ± 0.0098 for the second.

First: TALGLILSSFVY
Second: AGARLEWVVAGR
The protein stability index of the first is lower: 0.595 ± 0.067 for the first, 0.7539 ± 0.0045 for the second.

Going from VSPAPSAILRLD to LFVSPRPFRSVL, the protein stability index rises from 0.6765 ± 0.0025 to 0.7495 ± 0.0063.

TFINVHRFCSAI and MVELWQPASVFS are within error of each other in protein stability index: 0.647 ± 0.024 for the first, 0.663 ± 0.033 for the second.

Going from FPTSPPLIALLD to PVLGYLTRGLWL, the protein stability index rises from 0.6692 ± 0.0029 to 0.721 ± 0.015.

Going from SRIASKNRKRKR to VVIPLDKGVIVQ, the protein stability index falls from 0.774 ± 0.024 to 0.56 ± 0.014.

First: VPFPFLPPSPSL
Second: PISRRVIFCLQT
The protein stability index of the first is higher: 0.87 ± 0.14 for the first, 0.62 ± 0.033 for the second.

First: STRGGLCFLRWV
Second: SSLSFHPLPLAP
The protein stability index of the first is lower: 0.5543 ± 0.0019 for the first, 0.695 ± 0.03 for the second.

ILLSLSRWGMAG and PPSFLHPTPRPR are within error of each other in protein stability index: 0.723 ± 0.024 for the first, 0.673 ± 0.082 for the second.

Compared with LPGGRRPSQCPA, RKKREKREKETN is lower in protein stability index: 0.645 ± 0.01 for the first, 0.598 ± 0.026 for the second.
